± gives the uncertainty stated by the source.
Experiment: protein stability index of a GFP-peptide fusion (yeast GPS) (PSI 1-4); higher = more stable; sorted into four equal gates, so the index is relative within each strain
Method in brief: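 Tiled yeast protein peptides of 17 residues were each joined downstream of GFP, on plasmids that also express Cherry. The pooled library was maintained in yeast, and mid-log cultures in leucine-free medium were sorted into four equal gates on the GFP/Cherry ratio. Plasmids from every gate were amplified by PCR and sequenced on Illumina, with barcodes linking reads to strains. The protein stability index of a peptide is its gate-number-weighted read frequency summed over the gates.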

Row | Sequence | protein stability index (doa10∆) | protein stability index (pdr5∆) | protein stability index (san1∆) | protein stability index (ubr1∆)
1 | HLEALQPLFSTVPEYLK [PGD1] | 1.51 ± 0.039 | 1.69 ± 0.045 | 1.66 ± 0.093 | 2.12 ± 0.066
2 | AGKFELLDRILPKLKAT [SNF2] | 1.18 ± 0.17 | 2.05 ± 0.14 | 1.77 ± 0.19 | 1.95 ± 0.17
3 | RKGGPATAEKLPNIYPS [RPT2] | 2.89 ± 0.13 | 3.54 ± 0.25 | 2.81 ± 0.13 | –
4 | EDILQGIFNLLNTLFNP [NUT1] | 2.23 ± 0.052 | 2.35 ± 0.055 | 2.41 ± 0.078 | 2.3 ± 0.075
5 | GDLKLQVLLDEEYKQLV [RPO21] | 2.48 ± 0.12 | 2.94 ± 0.082 | 2.73 ± 0.11 | 3.2 ± 0.062
6 | TWNGSPFDNSTEEKCKN [YJL039C/NUP192] | 3.1 ± 0.084 | 3.38 ± 0.081 | 3.26 ± 0.066 | 3.33 ± 0.073
7 | TSPEKKDGGDKPPSSAF [YAR002W/NUP60] | 3.42 ± 0.13 | 3.34 ± 0.075 | 3.3 ± 0.081 | 3.72 ± 0.11
8 | LLTKNVSCYRPRRDGER [RPS6A] | 1.24 ± 0.22 | 2.8 ± 0.12 | 3.19 ± 0.085 | 3.4 ± 0.096
9 | LAALNVWYGLSDGEDGH [SSN2] | 3.19 ± 0.12 | 3.39 ± 0.11 | 3.04 ± 0.067 | 3.12 ± 0.077
10 | EEGEFIIDLYSLPEGLL [TAF14] | 3.4 ± 0.088 | 3.54 ± 0.085 | 3.57 ± 0.058 | 3.52 ± 0.063
11 | TCVAKKGIAKEHAKWGP [RPB3] | 3.31 ± 0.07 | 3.28 ± 0.08 | 3.21 ± 0.07 | 3.16 ± 0.047
12 | INIKYLRLDGHTKSDER [SNF2] | 3.1 ± 0.083 | 2.11 ± 0.063 | 2.29 ± 0.098 | 2.79 ± 0.063
13 | RPDLIKEDHPLEFYKDK [SIR3] | 3.17 ± 0.07 | 3.23 ± 0.055 | 3.21 ± 0.039 | 3.08 ± 0.074
14 | VDTSTELESMLEDLKNT [RRP6] | 3.56 ± 0.24 | 3.03 ± 0.14 | 3.46 ± 0.11 | 3.13 ± 0.054
15 | LLKEEKIIELMNKIFTI [YML103C/NUP188] | 2.81 ± 0.088 | 1.57 ± 0.097 | 1.26 ± 0.15 | 1.79 ± 0.25
16 | TGSIRHRLKLCKSLISE [CSE2] | 3.49 ± 0.29 | – | – | –
17 | AVEKTLALGCHFQDQKN [POP7] | 2.42 ± 0.12 | 3.12 ± 0.11 | 2.87 ± 0.078 | 2.78 ± 0.096
18 | EAKKFEPTYRLVRYGLA [RPS24A] | 2.83 ± 0.14 | 3.11 ± 0.095 | 2.79 ± 0.13 | 2.88 ± 0.049
19 | HDISRYVRAKFLDYTTD [PRP8] | 2.23 ± 0.066 | 1.99 ± 0.088 | 1.83 ± 0.12 | 2.54 ± 0.089
20 | AVAGLTADAEILINTAR [PRE9] | 2.98 ± 0.11 | 3.02 ± 0.088 | 3.07 ± 0.1 | 3.09 ± 0.078
21 | QQQQQHQQQQQQQQQQQ [SNF5] | 2.73 ± 0.04 | 2.89 ± 0.05 | 2.94 ± 0.043 | 2.97 ± 0.044
22 | SPDGRNFQVEYAVKAVE [PRE10] | 2.8 ± 0.079 | 2.81 ± 0.077 | 2.65 ± 0.07 | 2.37 ± 0.085
23 | VNGPNVHPGANYLLKRN [RPO31] | 3.29 ± 0.056 | 3.21 ± 0.068 | 3.26 ± 0.044 | 3.21 ± 0.037
24 | GRSWDGKEHIVAALVSL [ECM29] | 1.88 ± 0.052 | 2.1 ± 0.063 | 1.56 ± 0.082 | 1.65 ± 0.042
25 | ARIIAAIPNPEDVVAIS [RPS0A] | 1.8 ± 0.071 | 2.14 ± 0.083 | 2.34 ± 0.091 | 2.31 ± 0.083
26 | REPRVVSALQMLKQHLF [PUP1] | 3.1 ± 0.13 | 3.05 ± 0.094 | 3.02 ± 0.066 | 2.79 ± 0.049
27 | GIKATNGVVIATEKKSS [PRE8] | 2.91 ± 0.18 | 2.89 ± 0.17 | 2.52 ± 0.26 | 3.09 ± 0.11

Row | Sequence | protein stability index (doa10∆) | protein stability index (pdr5∆) | protein stability index (san1∆) | protein stability index (ubr1∆)
28 | GLSQTEAFGNIKIDAKP [MCD1] | 2.07 ± 0.083 | 2.87 ± 0.15 | 1.77 ± 0.2 | 2.48 ± 0.078
29 | EYSPEILQIREEIPSKS [RRP6] | 2.66 ± 0.068 | 2.79 ± 0.08 | 2.54 ± 0.072 | 2.88 ± 0.044
30 | GYDINYISKIGEKIDSN [SWI1] | 3.2 ± 0.11 | 2.98 ± 0.085 | 3.23 ± 0.084 | 2.91 ± 0.11
31 | VLKACGILSDLEIMQLV [RET1] | 1.56 ± 0.11 | – | 1.46 ± 0.22 | 2.56 ± 0.082
32 | SYYGIVCLMQISTRERD [RRP6] | 1.96 ± 0.12 | 1.41 ± 0.081 | 1.21 ± 0.16 | 1.39 ± 0.09
33 | SRQKSGLFDSFTNGVLA [YML031W/NDC1] | 1.68 ± 0.064 | 1.5 ± 0.065 | 1.92 ± 0.12 | 1.49 ± 0.06
34 | NPMKKHKPNEGRTPNIS [SIR4] | 2.88 ± 0.068 | 2.86 ± 0.055 | 2.88 ± 0.052 | 2.97 ± 0.036
35 | GKGNTFEKVGSHLYKAR [RPN14] | 2.93 ± 0.25 | 2.81 ± 0.14 | – | 3.27 ± 0.13
36 | LKDFNTERVVEIGPSPT [FAS2] | 2.888 ± 0.024 | 2.901 ± 0.022 | 2.861 ± 0.017 | 2.716 ± 0.014
37 | EMLEENFPEASKLSEHL [YCG1] | 2.55 ± 0.28 | 2.29 ± 0.24 | 2.82 ± 0.19 | 2.49 ± 0.15
38 | SFNESQRGEDDLTFKLA [RPO21] | – | – | 3.54 ± 0.15 | 1.09 ± 0.14
39 | NTSAQHVESDKITAKTQ [IRR1] | 2.92 ± 0.05 | 2.99 ± 0.039 | 2.95 ± 0.05 | 3.08 ± 0.042
40 | RLQGIKLLDNIQEYQLC [COR1] | 2.46 ± 0.13 | 2.24 ± 0.092 | 2.06 ± 0.13 | 2.34 ± 0.063
41 | VSNPIRKVFKPSQGMVV [FAS1] | 3.08 ± 0.068 | 2.74 ± 0.061 | 2.87 ± 0.14 | 2.66 ± 0.068
42 | KLYTKELSVTGSAINHH [YMR129W/POM152] | 1.22 ± 0.12 | 1.35 ± 0.077 | 1.46 ± 0.23 | 1.49 ± 0.06
43 | KDLKEILSGFHNAGPVA [RPP1B] | 2.93 ± 0.057 | 2.75 ± 0.062 | 2.62 ± 0.066 | 2.58 ± 0.066
44 | NANRVFRTRFQDGTSVV [SMC2] | 2.74 ± 0.16 | 1.29 ± 0.1 | 2.31 ± 0.26 | 2.34 ± 0.085
45 | ERNAFLSDYEVLKFLTD [RPC17] | 3.44 ± 0.096 | 3.04 ± 0.087 | 3.28 ± 0.05 | 3.05 ± 0.086
46 | ESYYNWKYNNFLQKFEI [YML103C/NUP188] | 2.47 ± 0.056 | 2.83 ± 0.052 | 2.77 ± 0.059 | 2.72 ± 0.034
47 | INSTKNGKDNNNESNKN [MED2] | 3.08 ± 0.052 | 3.15 ± 0.045 | 3.22 ± 0.038 | 3.19 ± 0.033
48 | DISLKADLERFFLSIYF [YJL039C/NUP192] | 3.24 ± 0.13 | 2.79 ± 0.092 | 2.96 ± 0.099 | 2.94 ± 0.044
49 | TLFCCLLRSRLATRRVL [RPO21] | 1.31 ± 0.068 | 1.22 ± 0.06 | 1.15 ± 0.15 | 1.2 ± 0.05
50 | DPLRIAMKELAEKKIPL [RPO26] | – | 3.26 ± 0.18 | – | –
51 | NIRGNTIRQIILPDSLN [SMD1] | 2.87 ± 0.15 | 2.94 ± 0.12 | 2.76 ± 0.16 | 3.27 ± 0.099
52 | TLVNKSTGLKNASDALK [RPS1B] | 2.87 ± 0.11 | 3.2 ± 0.11 | 3.4 ± 0.092 | 3.24 ± 0.075
53 | KASVTIVFDNTDKSNSP [SMC2] | 2.99 ± 0.045 | 3.02 ± 0.044 | 2.9 ± 0.042 | 3.156 ± 0.028

From the supplement of paper PMC9732359
